Test results: patent US20030068675, “Position dependent recognition of GNN nucleotide triplets by zinc fingers” (published 2003)
Positions count from the first letter of the chain named.

Tests used:
Experiment in all cases: EMSA
Details in all cases: tags: MBP fusion
ZFP SBS#249 = ZFP SBS#249 (synthetic)
Experimental: (§1) Affinity is measured by titrating purified protein against a fixed amount of labeled double-stranded oligonucleotide target. The target typically comprises the natural binding site sequence flanked by the 3 bp found in the natural sequence and additional, constant flanking sequences. The natural binding site is typically 9 bp for a three-finger protein and 2×9 bp +intervening bases for a six finger ZFP. […] For the assay the target is added at a concentration of 1 nM or lower (the actual concentration is kept at least 10-fold lower than the expected dissociation constant), purified ZFPs are added at various concentrations, and the reaction is allowed to equilibrate for at least 45 min. In addition the reaction mixture also contains 10 mM Tris (pH 7.5), 100 mM KCl, 1 mM MgCl2, 0.1 mM ZnCl2, 5 mM DTT, 10% glycerol, 0.02% BSA. (NB: in earlier assays poly d(IC) was also added at […].) The equilibrated reactions are loaded onto a 10% polyacrylamide gel, which has been pre-run for 45 min in Tris/glycine buffer, then bound and unbound labeled target is resolved by electrophoresis at 150V.

ZFP SBS#250 = biological target: T1, ZFP SBS#250 (synthetic)
T1 chain: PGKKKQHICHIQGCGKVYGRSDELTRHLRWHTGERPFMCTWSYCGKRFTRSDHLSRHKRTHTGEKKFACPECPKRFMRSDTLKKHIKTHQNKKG
Experimental: as §1

ZFP SBS#264 = biological target: T2, ZFP SBS#264 (synthetic)
T2 chain: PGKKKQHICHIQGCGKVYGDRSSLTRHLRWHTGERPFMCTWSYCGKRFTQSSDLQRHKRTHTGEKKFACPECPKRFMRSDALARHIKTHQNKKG
Experimental: as §1

ZFP SBS#265 = biological target: T3, ZFP SBS#265 (synthetic)
T3 chain: T2 chain with D20E, S22G, S23T, T25A
Experimental: as §1

ZFP SBS#205 = biological target: T4, ZFP SBS#205 (synthetic)
T4 chain: T2 chain with D20Q, R21S, S22A, S23N, T25A, S52A, D53T, Q55A, A81N, A83S
Experimental: as §1

ZFP SBS#207 = biological target: T5, ZFP SBS#207 (synthetic)
T5 chain: T2 chain with D20Q, S22A, T25A, R26S, Q50R, S52D, D53H, Q55T, R56T, A81N
Experimental: as §1

ZFP SBS#209 = ZFP SBS#209 (synthetic)
ZFP SBS#209 (synthetic), sequence (chain, as listed by the source): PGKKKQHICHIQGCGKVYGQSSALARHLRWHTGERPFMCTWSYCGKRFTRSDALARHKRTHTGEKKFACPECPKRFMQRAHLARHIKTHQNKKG
Experimental: as §1

ZFP SBS#210 = biological target: T6, ZFP SBS#210 (synthetic)
T6 chain: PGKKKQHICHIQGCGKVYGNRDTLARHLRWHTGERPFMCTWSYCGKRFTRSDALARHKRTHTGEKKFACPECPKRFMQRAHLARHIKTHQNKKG
Experimental: as §1

ZFP SBS#211 = ZFP SBS#211 (synthetic)
ZFP SBS#211 (synthetic), sequence (chain, as listed by the source): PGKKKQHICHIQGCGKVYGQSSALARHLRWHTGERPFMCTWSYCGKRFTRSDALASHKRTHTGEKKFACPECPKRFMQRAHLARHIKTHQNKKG
Experimental: as §1

ZFP SBS#212 = biological target: T7, ZFP SBS#212 (synthetic)
T7 chain: T6 chain with R56S
Experimental: as §1

ZFP SBS#217 = ZFP SBS#217 (synthetic)
ZFP SBS#217 (synthetic), sequence (chain, as listed by the source): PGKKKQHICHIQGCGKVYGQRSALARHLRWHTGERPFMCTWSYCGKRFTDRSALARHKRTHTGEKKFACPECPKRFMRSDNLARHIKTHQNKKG
Experimental: as §1

ZFP SBS#223 = biological target: T8, ZFP SBS#223 (synthetic)
T8 chain: T6 chain with N20D, D22S, T23N, A25R, R26T, A53N, R79Q, A80S, H81N
Experimental: as §1

ZFP SBS#225 = biological target: T9, ZFP SBS#225 (synthetic, UniProt P08047)
T9 chain: T2 chain with S23A, T25A, Q50R, S52D, D53N, Q55A, A81H, A83T, R84T
Experimental: as §1

ZFP SBS#270 = biological target: T10, ZFP SBS#270 (synthetic)
T10 chain: T1 chain with E23H, R50E, S51R, D52G, H53T, S55A, T81H, K83T, K84R
Experimental: as §1

ZFP SBS#269 = biological target: T11, ZFP SBS#269 (synthetic)
T11 chain: T1 chain with E23H, R50D, S51R, D52S, H53S, S55T, T81H, K83T, K84R
Experimental: as §1

ZFP SBS#232 = ZFP SBS#232 (synthetic)
Experimental: as §1

ZFP SBS#233 = ZFP SBS#233 (synthetic)
ZFP SBS#233 (synthetic), sequence (chain, as listed by the source): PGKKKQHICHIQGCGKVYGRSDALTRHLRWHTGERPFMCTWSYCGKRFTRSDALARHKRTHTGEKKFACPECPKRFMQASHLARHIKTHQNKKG
Experimental: as §1

ZFP SBS#235 = biological target: T12, ZFP SBS#235 (synthetic)
T12 chain: T6 chain with N20R, R21S, T23A, A25T, A53N, A80G, H81A
Experimental: as §1

ZFP SBS#236 = biological target: T13, ZFP SBS#236 (synthetic, UniProt P08047)
T13 chain: T1 chain with E23H, T25A, H53N, S55A, T81H, K83S, K84R
Experimental: as §1

ZFP SBS#238 = biological target: T14, ZFP SBS#238 (synthetic, UniProt P08047)
T14 chain: T6 chain with N20E, D22G, A53N, A55Q, Q78R, R79S, A80D, A83S
Experimental: as §1

ZFP SBS#237 = biological target: T15, ZFP SBS#237 (synthetic, UniProt P08047)
T15 chain: T6 chain with N20E, D22G, A53N, Q78R, R79S, A80D, A83S
Experimental: as §1

ZFP SBS#239 = ZFP SBS#239 (synthetic)
Experimental: as §1

ZFP SBS#240 = ZFP SBS#240 (synthetic)
ZFP SBS#240 (synthetic), sequence (chain, as listed by the source): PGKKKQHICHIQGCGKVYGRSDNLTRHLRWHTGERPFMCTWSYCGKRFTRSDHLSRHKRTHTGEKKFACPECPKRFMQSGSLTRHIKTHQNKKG
Experimental: as §1

ZFP SBS#242 = ZFP SBS#242 (synthetic, UniProt P08047)
ZFP SBS#242, sequence (P08047 other isoform, or with tags, fused parts or gaps): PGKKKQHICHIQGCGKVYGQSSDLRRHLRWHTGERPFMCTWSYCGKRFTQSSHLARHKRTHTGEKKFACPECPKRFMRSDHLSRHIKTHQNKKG
Experimental: as §1

ZFP SBS#243 = biological target: T16, ZFP SBS#243 (synthetic)
T16 chain: T2 chain with D20Q, R21S, S23D, T25R, Q50D, S51R, D53H, Q55A
Experimental: as §1

ZFP SBS#245 = ZFP SBS#245 (synthetic)
ZFP SBS#245 (synthetic), sequence (chain, as listed by the source): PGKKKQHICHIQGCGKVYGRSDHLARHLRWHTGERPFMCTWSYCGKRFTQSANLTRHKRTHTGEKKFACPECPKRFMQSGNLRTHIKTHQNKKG
Experimental: as §1

ZFP SBS#244 = ZFP SBS#244 (synthetic)
Experimental: as §1

ZFP SBS#246 = ZFP SBS#246 (synthetic)
ZFP SBS#246 (synthetic), sequence (chain, as listed by the source): as the sequence (P08047 other isoform, or with tags, fused parts or gaps) above, with Q20R, S22D, D23N, R25A, Q50R, S52D, R78Q, D80G, H81N, S83T counted along it
Experimental: as §1

ZFP SBS#247 = ZFP SBS#247 (synthetic)
Experimental: as §1

ZFP SBS#272 = biological target: T17, ZFP SBS#272 (synthetic)
T17 chain: T2 chain with Q50R, S52D, D53H, Q55S, R78Q, D80G, A81S, A83T
Experimental: as §1

ZFP SBS#283 = biological target: T18, ZFP SBS#283 (synthetic)
T18 chain: T1 chain with E23A, R50Q, D52G, H53N, S55T, R78Q, D80G, T81S, K83T, K84R
Experimental: as §1

ZFP SBS#289 = ZFP SBS#289 (synthetic)
ZFP SBS#289 (synthetic), sequence (chain, as listed by the source): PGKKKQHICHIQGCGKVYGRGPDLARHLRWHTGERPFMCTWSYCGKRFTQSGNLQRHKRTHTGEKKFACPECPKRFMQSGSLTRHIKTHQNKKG
Experimental: as §1

ZFP SBS#293 = biological target: T19, ZFP SBS#293 (synthetic)
T19 chain: T2 chain with S23H, Q50E, S51R, S52H, D53S, R56T, A83T
Experimental: as §1

ZFP SBS#249 (synthetic), sequence (chain, as listed by the source): as the sequence (P08047 other isoform, or with tags, fused parts or gaps) above, with Q20R, S22D, D23E, R25T, Q50R, S52D, A55S, H81E, S83R counted along it

B1: GCGGGGGCG (dsDNA)
DNA 1: GCGGGGGCG
DNA 2: CGCCCCCGC
Kd (ZFP SBS#249): 20 nM | Kd (ZFP SBS#250): 70 nM

B2: GTGGCTGCC (dsDNA)
DNA 1: GTGGCTGCC
DNA 2: GGCAGCCAC
Kd (ZFP SBS#264): 27 nM | Kd (ZFP SBS#265): 600 nM

B3: GAGGTAGAA (dsDNA)
DNA 1: GAGGTAGAA
DNA 2: TTCTACCTC
Kd (ZFP SBS#205): 80 nM

B4: GAGTGGTTA (dsDNA)
DNA 1: GAGTGGTTA
DNA 2: TAACCACTC
Kd (ZFP SBS#207): 70 nM

B5: GGAGTGGTT (dsDNA)
DNA 1: GGAGTGGTT
DNA 2: AACCACTCC
Kd (ZFP SBS#209): 35 nM | Kd (ZFP SBS#210): 65 nM | Kd (ZFP SBS#211): 140 nM | Kd (ZFP SBS#212): 400 nM

B6: GAGGTCGTA (dsDNA)
DNA 1: GAGGTCGTA
DNA 2: TACGACCTC
Kd (ZFP SBS#217): 40 nM

B7: GATGAGTAC (dsDNA)
DNA 1: GATGAGTAC
DNA 2: GTACTCATC
Kd (ZFP SBS#223): 105 nM

B8: TGGGAGGTC (dsDNA)
DNA 1: TGGGAGGTC
DNA 2: GACCTCCCA
Kd (ZFP SBS#225): 6 nM

B9: GGGGCCGGG (dsDNA)
DNA 1: GGGGCCGGG
DNA 2: CCCGGCCCC
Kd (ZFP SBS#270): 52.5 nM | Kd (ZFP SBS#269): 5 nM

B10: GGTGTGGTG (dsDNA)
DNA 1: GGTGTGGTG
DNA 2: CACCACACC
Kd (ZFP SBS#232): 50 nM | Kd (ZFP SBS#233): 100 nM

B11: GTAGAGGTG (dsDNA)
DNA 1: GTAGAGGTG
DNA 2: CACCTCTAC
Kd (ZFP SBS#235): 80 nM

B12: GGGGAGGGG (dsDNA)
DNA 1: GGGGAGGGG
DNA 2: CCCCTCCCC
Kd (ZFP SBS#236): 0.3 nM

B13: GGGGAGGCC (dsDNA)
DNA 1: GGGGAGGCC
DNA 2: GGCCTCCCC
Kd (ZFP SBS#238): 0.8 nM | Kd (ZFP SBS#237): 0.3 nM

B14: GGCGGGGAG (dsDNA)
DNA 1: GGCGGGGAG
DNA 2: CTCCCCGCC
Kd (ZFP SBS#239): 0.4 nM

B15: GCAGGGGAG (dsDNA)
DNA 1: GCAGGGGAG
DNA 2: CTCCCCTGC
Kd (ZFP SBS#240): 1 nM

B16: GGGGGTGCT (dsDNA)
DNA 1: GGGGGTGCT
DNA 2: AGCACCCCC
Kd (ZFP SBS#242): 1 nM

B17: GTGGGCGCT (dsDNA)
DNA 1: GTGGGCGCT
DNA 2: AGCGCCCAC
Kd (ZFP SBS#243): 75 nM

B18: TAAGAAGGG (dsDNA)
DNA 1: TAAGAAGGG
DNA 2: CCCTTCTTA
Kd (ZFP SBS#245): 235 nM | Kd (ZFP SBS#244): 100 nM

B19: GAAGGGGAG (dsDNA)
DNA 1: GAAGGGGAG
DNA 2: CTCCCCTTC
Kd (ZFP SBS#246): 2 nM | Kd (ZFP SBS#247): 2 nM

B20: GCAGGGGCC (dsDNA)
DNA 1: GCAGGGGCC
DNA 2: GGCCCCTGC
Kd (ZFP SBS#272): 20 nM

B21: GCAGAAGTG (dsDNA)
DNA 1: GCAGAAGTG
DNA 2: CACTTCTGC
Kd (ZFP SBS#283): 2 nM

B22: GCAGAAGCG (dsDNA)
DNA 1: GCAGAAGCG
DNA 2: CGCTTCTGC
Kd (ZFP SBS#289): 800 nM

B23: GTGTGCGGC (dsDNA)
DNA 1: GTGTGCGGC
DNA 2: GCCGCACAC
Kd (ZFP SBS#293): 320 nM
